Changes are numbered by the printed parent chain. Names may count otherwise. Where two headings read alike, the source gives them in different places.

The labels stand for the following.
T1: Kif7-DM (1-543aa) (human, UniProt Q2M1P5 1-543)
T1 sequence (looked up): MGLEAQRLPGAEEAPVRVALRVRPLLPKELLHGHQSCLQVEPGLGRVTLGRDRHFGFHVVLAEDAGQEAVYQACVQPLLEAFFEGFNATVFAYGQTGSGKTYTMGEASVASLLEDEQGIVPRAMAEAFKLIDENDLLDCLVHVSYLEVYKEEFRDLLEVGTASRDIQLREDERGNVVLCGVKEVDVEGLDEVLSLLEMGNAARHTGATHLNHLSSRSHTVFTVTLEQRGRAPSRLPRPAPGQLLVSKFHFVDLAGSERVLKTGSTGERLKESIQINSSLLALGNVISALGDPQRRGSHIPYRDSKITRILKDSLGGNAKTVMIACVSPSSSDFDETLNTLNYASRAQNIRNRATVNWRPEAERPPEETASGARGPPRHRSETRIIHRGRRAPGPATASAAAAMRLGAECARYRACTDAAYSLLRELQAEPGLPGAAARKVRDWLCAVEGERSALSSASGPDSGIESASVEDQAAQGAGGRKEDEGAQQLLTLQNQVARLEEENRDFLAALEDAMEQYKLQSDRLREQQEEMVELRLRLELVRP

T2: Kif7-DM-GFP (1-543aa) (human, UniProt Q2M1P5 1-543)
T2 sequence (looked up): T1 sequence (looked up)

B1: Kif27M-Kif7CC-GFP (other, human, UniProt Q86VH2 1-475, looked up)
chain: MEEIPVKVAVRIRPLLCKEALHNHQVCVRVIPNSQQVIIGRDRVFTFDFVFGKNSTQDEVYNTCIKPLVLSLIEGYNATVFAYGQTGSGKTYTIGGGHIASVVEGQKGIIPRAIQEIFQSISEHPSIDFNVKVSYIEVYKEDLRDLLELETSMKDLHIREDEKGNTVIVGAKECHVESAGEVMSLLEMGNAARHTGTTQMNEHSSRSHAIFTISICQVHKNMEAAEDGSWYSPRHIVSKFHFVDLAGSERVTKTGNTGERFKESIQINSGLLALGNVISALGDPRRKSSHIPYRDAKITRLLKDSLGGSAKTVMITCVSPSSSNFDESLNSLKYANRARNIRNKPTVNFSPESDRIDEMEFEIKLLREALQSQQAGVSQTTQINREGSPDTNRIHSLEEQVAQLQGECLGYQCCVEEAFTFLVDLKDTVRLNEKQQHKLQEWFNMIQEVRKAVLTSFRGIGGTASLEEGPQHVTVPDSGIESASVEDQAAQGAGGRKEDEGAQQLLTLQNQVARLEEENRDFLAALEDAMEQYKLQSDRLREQQEEMVELRLRLELVRPGWGGPRLLNGLPPGSFVPRPHTAPLGGAHAHVLGMVPPACLPGDEVGSEQRGEQVTN
B2: Gli2-ZF (domain or fragment, human, UniProt P10070 418-604, looked up)
chain: KEDLDRDDCKQEAEVVIYETNCHWEDCTKEYDTQEQLVHHINNEHIHGEKKEFVCRWQACTREQKPFKAQYMLVVHMRRHTGEKPHKCTFEGCSKAYSRLENLKTHLRSHTGEKPYVCEHEGCNKAFSNASDRAKHQNRTHSNEKPYICKIPGCTKRYTDPSSLRKHVKTVHGPDAHVTKKQRNDVH
B3: Gli2-ZF-GFP (domain or fragment, human, UniProt P10070 418-604, looked up)
chain: B2 chain
B4: Kif7-DM(E502A)-GFP (domain or fragment, human, UniProt Q2M1P5 1-543, looked up)
chain: T1 sequence (looked up) with E502A
B5: GST-Kif7-CC-GFP (domain or fragment, human, UniProt Q2M1P5 460-600, looked up)
chain: PDSGIESASVEDQAAQGAGGRKEDEGAQQLLTLQNQVARLEEENRDFLAALEDAMEQYKLQSDRLREQQEEMVELRLRLELVRPGWGGPRLLNGLPPGSFVPRPHTAPLGGAHAHVLGMVPPACLPGDEVGSEQRGEQVTN
B6: GST-Kif7-CC D505A (domain or fragment, human, UniProt Q2M1P5 460-600, looked up)
chain: B5 chain with D46A
B7: GST-Kif7-CC (460-600aa) (domain or fragment, human, UniProt Q2M1P5 460-600, looked up)
chain: B5 chain
B8: GST-Kif7-SCC (481-543aa) (domain or fragment, human, UniProt Q2M1P5 481-543, looked up)
chain: KEDEGAQQLLTLQNQVARLEEENRDFLAALEDAMEQYKLQSDRLREQQEEMVELRLRLELVRP
B9: Kif7M-Kif27CC-GFP (other, human, UniProt Q2M1P5 1-462, looked up)
chain: MGLEAQRLPGAEEAPVRVALRVRPLLPKELLHGHQSCLQVEPGLGRVTLGRDRHFGFHVVLAEDAGQEAVYQACVQPLLEAFFEGFNATVFAYGQTGSGKTYTMGEASVASLLEDEQGIVPRAMAEAFKLIDENDLLDCLVHVSYLEVYKEEFRDLLEVGTASRDIQLREDERGNVVLCGVKEVDVEGLDEVLSLLEMGNAARHTGATHLNHLSSRSHTVFTVTLEQRGRAPSRLPRPAPGQLLVSKFHFVDLAGSERVLKTGSTGERLKESIQINSSLLALGNVISALGDPQRRGSHIPYRDSKITRILKDSLGGNAKTVMIACVSPSSSDFDETLNTLNYASRAQNIRNRATVNWRPEAERPPEETASGARGPPRHRSETRIIHRGRRAPGPATASAAAAMRLGAECARYRACTDAAYSLLRELQAEPGLPGAAARKVRDWLCAVEGERSALSSASGPDSVLQLKRELKKCQCVLAADEVVFNQKELEVKELKNQVQMMVQENKGHAVSLKEAQKVNRLQNEKIIEQQLLVDQLSEELTKLNLSVTSSAKENCGDG

The data set “SEC” concerns the molecule itself. Put plainly: SEC. In general terms: Size exclusion chromatography separates by hydrodynamic size, large species first.
Data set [1] deals with B2. As to the kind of experiment: BLI. A general note: In BLI a coated tip is dipped into the sample, and binding shifts an interference pattern.
For the next data set, the target named is T1, Kif7-DM (1-543aa). As to the kind of experiment: BLI.
The target of data set [2] is T2, Kif7-DM-GFP (1-543aa). As to the kind of experiment: BLI.
For the data set “Kif7-DM(E502A)-GFP”, the target named is B4. Put plainly: BLI.
The data set “GST-Kif7-CC-GFP” addresses B5. Put plainly: SEC.
Data set [3] concerns the target T2, Kif7-DM-GFP (1-543aa). As to the kind of experiment: SEC.
Data set [4] has as its target B2. As to the kind of experiment: BLI. This is another data set of the same source.
In the data set “Gli2-ZF-GFP” the target is B3. Put plainly: BLI.

Take B1: the stoichiometry N (commonly the number of molecules, sites or subunits per partner or assembly) in “SEC” is 2. Also, the Kd (usually the concentration at which binding is half-saturated) with Gli2-ZF [1] stood at 217 ± 70 nM.
With B2, the Kd worked out at 99 ± 25 nM with Kif7-DM (1-543aa), 138 ± 41 nM with Kif7-DM-GFP (1-543aa) [2] and 414 ± 103 nM with Kif7-DM(E502A)-GFP.
Turning to B3, the figures for the “stoichiometry N” value in the data set with GST-Kif7-CC-GFP and with Kif7-DM-GFP (1-543aa) [3] were 0.5 Gli2-ZF-GFP per Kif7-CC-GFP chain (one per dimer) and 1 Gli2-ZF per Kif7-DM chain (two per dimer), respectively.
With B4, the “stoichiometry N” value in “SEC” came out at 2.
For B5, the Kd with Gli2-ZF [4] is 65 ± 22 nM; in the data set with Gli2-ZF-GFP, 57 ± 9 nM.
For B6, in the data set with Gli2-ZF [4], the binding result was “binds”.
In the data set with Gli2-ZF [4], B7 displayed a Kd of 48 ± 5 nM.
B8 returned a Kd with Gli2-ZF [4] of 69 ± 20 nM.
For the molecule B9, binding in the data set with Gli2-ZF [1] was put at a Kd of 397 ± 88 nM.
